From paper PMC5614552 (Biochemistry and Biophysics Reports, 2016)

Biological target: human CD34 protein (Fc tag; Sino Biological Incorporation) (Homo sapiens, UniProt P28906)
Test: SPR

human CD34 protein (Fc tag; Sino Biological Incorporation), sequence (P28906 32-290): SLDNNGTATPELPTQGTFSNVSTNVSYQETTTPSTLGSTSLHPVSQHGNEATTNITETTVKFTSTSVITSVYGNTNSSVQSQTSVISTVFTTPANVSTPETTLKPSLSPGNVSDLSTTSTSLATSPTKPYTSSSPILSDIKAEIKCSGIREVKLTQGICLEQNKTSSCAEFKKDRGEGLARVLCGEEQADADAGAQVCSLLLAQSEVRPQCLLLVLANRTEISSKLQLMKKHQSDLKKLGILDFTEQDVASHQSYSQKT

B1: Chimeric QBEND/10 (antibody, V domains shown)
VH: QVQLEQSGPELVKPGASVKMSCKASGYTFTSYVIHWVKQKPGQGLEWLGYTNPYNDVTKYNEKFKFKATLTSDKQSTTAYMEFSSLTSEDSAVYYCARYGGLWLYAMDYWGQGTSVTVSS
VL: QLVLTQSSSASFSLGASAKLTCTLSSQHRTFTIEWYQQQPLKPPKYVMELRKDGSHSTGDGIPDRFSGSSSGADRYLSISNIQPEDEAIYICGVGNTIKEQFVYVFGGGTKVTVL
  Kd: 14.7 nM
  koff: 0.000262 s⁻¹
  kon: 17800 M⁻¹ s⁻¹
